Earlier results as cited in article PMC2920229.

Target: HIV-1 protease (Human immunodeficiency virus 1) (UniProt O93215)

HIV-1 protease (from UniProt O93215)
Kd: < 5 nM
